The values that follow come from patent US11505576B2, “Polypeptides based on a scaffold” (AFFIBODY AB, priority 2018, dated 2022).

Data set [1] addresses C4. Briefly: Kinetic analysis using surface plasmon resonance (Biacore T200), immobilized C4. Format: binding. The conditions noted are these: Table 7; MGSSHHHHHHGSS-[Y#####]-A. On the procedure:
(§1) Kinetic constants (ka and kd) and affinities (KD) were determined for His6-tagged Y variants using a Biacore T200 instrument (GE Healthcare). Target proteins C4, IL-6 and insulin, respectively, were immobilized in separate flow cells on the carboxylated dextran layer of different CM5 chip surfaces (GE Healthcare). Immobilization was performed using amine coupling chemistry according to the manufacturer's protocol and PBS pH 7.4 supplemented with 0.1 Tween20 (PBST 0.1%) as running buffer. The ligand immobilization levels on the surfaces were 3280-8830 RU for C4, 495-1184 RU for IL-6, and 270-282 RU for insulin. One flow cell surface on each chip was activated and deactivated for use as blank during analyte injections. In the kinetic experiment, PBST 0.1% was used as running buffer at a flow rate of 30 μl/min. The analytes, i.e. Y variants, were each diluted in PBST 0.1 buffer at concentrations of 1000, 500, 100, 50 and 10 nM and injected for 5 min, followed by dissociation in running buffer for 3 min. After dissociation, the surfaces were regenerated with one injection of 30 μl 10 mM HCl. Kinetic constants were calculated from the sensorgrams using the Langmuir 1:1 model of Biacore T200 Evaluation software 2.0 (GE Healthcare).
(§2) Produced Y variants were subjected to CD and SPR analyses according to the methods described in Example 1.
The Y variants were cloned, produced and characterized according to the general methods described in Example 1. Produced Y variants with point mutations and/or N-terminal or C-terminal extensions were subjected to CD and SPR analyses as described in Example 1.
(§3) Produced Y variants were subjected to CD and SPR analyses according to the methods described in Example 1. In addition, CD spectra of selected IL-6 binding variants were also recorded at 60, 70, 80 and 90° C.

Data set [2] can be described thus: Fraction of soluble product on expression in E. coli, estimated from SDS-PAGE. Type of data set: physicochemical. The settings on record: MGSSHHHHHHGSS-[Y#####]-A; for Estimated soluble fraction: Table 7, Ylib002Naive.I selection; for Est soluble fraction: Table 9, mutation study 5. A digest of the protocol:
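E. coli T7E2 cultures with 50 μg/ml kanamycin were grown at 30-37 °C (EnPresso), induced with 0.5 mM IPTG at OD600 ~10 and harvested after 16 h. Alternatively, cultures were grown at 37 °C in TSB-YE, induced with 0.2 mM IPTG at OD600=2 and harvested after 5 h. Soluble and insoluble fractions were estimated by SDS-PAGE.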

Data set [3] is described as follows: Circular dichroism spectroscopy analysis (CD spectra, variable temperature measurement, refolding). Type of data set: physicochemical. The conditions noted are these: for Tm: Table 7, MGSSHHHHHHGSS-[Y#####]-A. In outline:
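Y variants at 0.5 mg/ml in PBS were scanned from 250 to 195 nm at 20° C. in a 1 mm cell. Tm came from the 221 nm signal during heating from 20 to 90° C. at 5° C./min, and a second 20° C. spectrum after heating assessed refolding. Selected IL-6 binders were also recorded at 60, 70, 80 and 90° C.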

Data set [4] has as its target T1, IL-6 (Homo sapiens, UniProt P05231).
T1 construct: purchased R&D Systems 206-IL-200/CF
Briefly: Kinetic analysis using surface plasmon resonance (Biacore T200), immobilized IL-6. The settings on record: MGSSHHHHHHGSS-[Y#####]-A. Type of data set: binding. The procedure: as §1, §2, §3
The Y variants were cloned, produced and characterized according to the general methods described in Example 1. Produced Y variants with point mutations were subjected to CD and SPR analyses as described in Example 1. In addition, CD spectra of the IL-6 binding variants were also recorded at 60, 70, 80 and 90° C.
For orientation: Surface plasmon resonance follows binding to a sensor surface in real time, without labels.

T1 sequence (P05231 30-212): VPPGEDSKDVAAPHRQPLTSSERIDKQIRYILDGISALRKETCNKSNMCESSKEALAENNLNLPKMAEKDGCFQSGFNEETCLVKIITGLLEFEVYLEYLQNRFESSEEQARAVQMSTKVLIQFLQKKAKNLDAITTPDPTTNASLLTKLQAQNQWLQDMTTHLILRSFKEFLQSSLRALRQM

The term Kd denotes a measure of binding affinity in units of concentration. In data set [1], “Y00792: C4 binding Y variant from Ylib002Naive.I, SEQ ID NO:32 (LAEAKEAAIAELDSKGVGADLIKKIQQASSVEGVQFWKQEILAQLPA; Engineered C4 binding Y variant)” gave a dissociation constant (Kd) of 62 nM, a ka of 27000 M⁻¹ s⁻¹ and a kd of 0.0017 s⁻¹. Moreover, in data set [2], the Estimated soluble fraction was 100%. The Tm in data set [3] turned out to be 58 °C.

In data set [1], “Y02303: C4 binding Y variant from Ylib002Naive.I, SEQ ID NO:34 (LAEAKEAAIAELDSKGVGAEEIKWIQNAWSVEGVQIMKQQILAELPA; Engineered C4 binding Y variant)” had a Kd of 2200 nM, a ka of 96000 M⁻¹ s⁻¹ and a kd of 0.21 s⁻¹. Further, in data set [2], the Estimated soluble fraction is reported as 100%. Besides, in data set [3], the Tm is 43 °C.

Take “Y02309: C4 binding Y variant from Ylib002Naive.I, SEQ ID NO:35 (LAEAKEAAIAELDSKGVGADLIKKIQKAESVEGVQFWKQEILATLPA; Engineered C4 binding Y variant)”: in data set [1], the affinity, expressed as Kd, was 70 nM; the ka was found to be 36000 M⁻¹ s⁻¹; the kd is 0.0025 s⁻¹. The Estimated soluble fraction in data set [2] is listed as 100%. For the same substance, the Tm in data set [3] came to 56 °C.

On to “Y02330: C4 binding Y variant from Ylib002Naive.I, SEQ ID NO:37 (LAEAKEAAIAELDSKGVGAELIKKIQHAESVEGVQFWKQEILAYLPA; Engineered C4 binding Y variant)”, for which, in data set [1], the equilibrium dissociation constant (Kd) was determined as 48 nM, the ka stood at 96000 M⁻¹ s⁻¹ and the kd was 0.0046 s⁻¹. For the same substance, the Estimated soluble fraction in data set [2] is 100%. Besides, the Tm in data set [3] amounted to 49 °C.

As to “Y02337: C4 binding Y variant from Ylib002Naive.I, SEQ ID NO:38 (LAEAKEAAIAELDSKGVGAAEIKWIQHASTVEGVQGRKQQILAELPA; Engineered C4 binding Y variant)”, in data set [1], the dissociation constant Kd was 1900 nM, the ka is 420000 M⁻¹ s⁻¹ and the kd amounted to 0.81 s⁻¹. Besides, the Estimated soluble fraction in data set [2] was 100%. For the same substance, the Tm in data set [3] was 31 °C.

On to “Y02358: C4 binding Y variant from Ylib002Naive.I, SEQ ID NO:39 (LAEAKEAAIAELDSKGVGADDIKLIQDAPSVEGVQEIKQFILAQLPA; Engineered C4 binding Y variant)”, for which, in data set [1], the Kd is 16 nM, the ka was determined as 90000 M⁻¹ s⁻¹ and the kd worked out at 0.0014 s⁻¹. Moreover, the Estimated soluble fraction in data set [2] is given as 100%. Further, the Tm in data set [3] amounted to 51 °C.

As to “Y02444: IL-6 binding Y variant from Ylib002Naive.I, SEQ ID NO:75 (LAEAKEAAIAELDSKGVGAVEIKQIQEALLVEIVQLLKQAILAVLPA; Engineered IL-6 binding Y variant)”, the Estimated soluble fraction in data set [2] is 100%. Further, in data set [4] (Table 7), the Kd turned out to be 61 nM, the ka came out at 90000 M⁻¹ s⁻¹ and the kd worked out at 0.0055 s⁻¹. The “Structure at elevated temperature” value in data set [3] (CD spectra recorded at 60, 70, 80 and 90° C.) was “partial structure also at temperatures up to 90 °C”.

For “Y02700: IL-6 binding Y variant, Y02415 with I9L, SEQ ID NO:84 (LAEAKEAALAELDSKGVGAGDIKDIQDALLVEIVQLLKQAILAVLPA; Engineered IL-6 binding Y variant)”, in data set [2], the Est soluble fraction was 100%. In data set [4] (Table 9, mutation study 5), the Kd stood at 62 nM, the ka is 46000 M⁻¹ s⁻¹ and the kd amounted to 0.0025 s⁻¹.

As for “Y02701: IL-6 binding Y variant, Y02415 with K15Y, SEQ ID NO:85 (LAEAKEAAIAELDSYGVGAGDIKDIQDALLVEIVQLLKQAILAVLPA; Engineered IL-6 binding Y variant)”, the Est soluble fraction in data set [2] was 100%. In data set [4] (Table 9, mutation study 5), this substance returned a dissociation constant Kd of 210 nM, a ka of 21000 M⁻¹ s⁻¹ and a kd of 0.0036 s⁻¹.

For “Y02702: IL-6 binding Y variant, Y02415 with Q26E, SEQ ID NO:86 (LAEAKEAAIAELDSKGVGAGDIKDIEDALLVEIVQLLKQAILAVLPA; Engineered IL-6 binding Y variant)”, the Est soluble fraction in data set [2] is recorded as 100%. For the same substance, in data set [4] (Table 9, mutation study 5), binding was characterised by a dissociation constant (Kd) of 440 nM, the ka stood at 16000 M⁻¹ s⁻¹ and the kd came out at 0.007 s⁻¹.

As for “Y02703: IL-6 binding Y variant, Y02444 with K15Y Q26E, SEQ ID NO:87 (LAEAKEAAIAELDSYGVGAVEIKQIEEALLVEIVQLLKQAILAVLPA; Engineered IL-6 binding Y variant)”, in data set [2], the Est soluble fraction is 100%. Moreover, in data set [4] (Table 9, mutation study 5), the equilibrium dissociation constant (Kd) came out at 120 nM, the ka was determined as 21000 M⁻¹ s⁻¹ and the kd stood at 0.0025 s⁻¹.
